Laboratory results from doi:10.1101/726224 (bioRxiv, 2019).

Target: Cyclin B1^165-433 (isolated) (UniProt P14635 165-433)
Assay: SEC

Chain of Cyclin B1^165-433 (isolated) (P14635 165-433): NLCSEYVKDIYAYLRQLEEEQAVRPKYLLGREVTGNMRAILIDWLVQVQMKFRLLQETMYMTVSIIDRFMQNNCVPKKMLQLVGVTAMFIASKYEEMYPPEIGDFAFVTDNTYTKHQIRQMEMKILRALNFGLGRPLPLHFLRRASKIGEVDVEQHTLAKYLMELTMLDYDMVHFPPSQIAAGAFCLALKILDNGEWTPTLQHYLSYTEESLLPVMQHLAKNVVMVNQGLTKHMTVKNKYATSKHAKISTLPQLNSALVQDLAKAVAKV

binding result: binds
Binder: LQMQYQQSMQLEERAEQIRSKS (domain or fragment) [MBP-MAD1^41-62]
